1 substance from patent US6984373B2, “Fibrin binding moieties useful as imaging agents” (Dyax Corp., priority 2000, dated 2006) can be followed below.

* marks the point of attachment. HYNIC = NNc1ccc(C(=O)*)cn1

For the series, the system named is human fibrin gel. As to the kind of experiment: Gamma camera imaging of fibrin clot in rabbit femoral artery with 99mTc-labeled peptide. The format is in vivo. The following applies: tricine coligand. On the procedure:
Preliminary imaging experiments were performed with ^99mTc-labeled DX-328 using tricine as a coligand. A human fibrin gel was formed around a small wire placed in the femoral artery of a rabbit. The radiolabeled imaging agent was injected into the ear vein of the rabbit, and images were taken using a gamma camera.
The intensity of radioactivity in the pulmonary region is due to circulating imaging agent that has not yet cleared. By increasing the time between injection and imaging, the background in the pulmonary region and elsewhere should be reduced as the unbound imaging agent clears through the kidneys. Alternatively, the same effect could be achieved by decreasing the clearance time of the imaging agent. This could be accomplished by using EDDA as a coligand instead of tricine.

As to “Ac-WQPCPWESWTFCWDPGGGK(HYNIC)-NH2 (not fully specified (bridges); cysteine pairing not given here; also: 99mTc/tricine complex) [DX-328, HYNIC-labeled peptide, used 99mTc-labeled with tricine coligand]”, the “route of excretion of agent unbound to the clot” value (rabbit) was “renally excreted”. The “visualisation of clot in left thigh versus clot-free right thigh” value (ear vein injection, human fibrin gel on wire in femoral artery) was “can clearly be seen”.
